Assay results published in article PMC7924340 (Toxins, 2021).

B1: α-Cobratoxin from cobra Naja kaouthia venom (natural protein)
chain: IRCFITPDITSKDCPNGHVCYTKTWCDAFCSIRGKRVDLGCAATCPTVKTGVDIQCCSTDNCNPFPTRKRP

Columns and labels:
[1] = molecular target: Acetylcholine binding protein from Aplysia californica (Aplysia californica); experiment: radioligand binding
[2] = molecular target: T1, Acetylcholine binding protein from Lymnaea stagnalis (Lymnaea stagnalis, UniProt P58154 20-229); experiment: radioligand binding; settings: both partners purified
T1 construct: also called AChBP L. stagnalis; L. stagnalis AChBP

Molecule	IC50 [1] [nM]	IC50 [2] [nM]
α-Cobratoxin from cobra Naja kaouthia venom (from UniProt P01391 1-71) (natural protein)	385	–
B1	–	25.4 ± 0.8
